Numbering of substitutions follows the chain as printed.

T1: IL-12 (Human IL12 (His Tag)), Sino Biological Cat. No. CT-050-H08H-20 (human, UniProt P29460 23-328; P29459 23-219)
T1 construct: Bought His-tagged p35/p40 heterodimer
T1 sequence (looked up) 1: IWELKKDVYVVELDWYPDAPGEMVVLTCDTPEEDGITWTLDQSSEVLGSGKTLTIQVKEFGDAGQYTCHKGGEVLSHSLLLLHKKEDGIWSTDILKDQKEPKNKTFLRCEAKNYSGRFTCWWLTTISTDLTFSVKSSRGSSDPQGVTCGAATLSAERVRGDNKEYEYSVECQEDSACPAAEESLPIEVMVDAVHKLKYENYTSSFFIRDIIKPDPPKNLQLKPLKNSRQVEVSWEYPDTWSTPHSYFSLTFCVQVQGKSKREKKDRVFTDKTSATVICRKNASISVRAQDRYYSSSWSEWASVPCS
T1 sequence (looked up) 2: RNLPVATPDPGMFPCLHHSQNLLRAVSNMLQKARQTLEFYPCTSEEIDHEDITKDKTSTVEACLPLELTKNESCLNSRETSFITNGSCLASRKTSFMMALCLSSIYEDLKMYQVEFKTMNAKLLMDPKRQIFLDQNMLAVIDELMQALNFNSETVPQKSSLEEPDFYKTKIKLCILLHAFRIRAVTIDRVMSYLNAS

T2: human IL-23 (IL-23-His-Biotin, Akesobio, 20161209) (human, UniProt Q9NPF7 20-189; P29460 23-328)
T2 construct: His-tagged and biotinylated; also called human IL23-His-Biotin
T2 sequence (looked up) 1: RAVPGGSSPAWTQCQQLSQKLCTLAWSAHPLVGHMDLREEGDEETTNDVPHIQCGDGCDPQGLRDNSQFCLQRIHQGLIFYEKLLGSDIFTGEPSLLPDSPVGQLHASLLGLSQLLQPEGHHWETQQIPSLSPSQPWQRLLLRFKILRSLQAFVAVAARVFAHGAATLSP
T2 sequence (looked up) 2: T1 sequence (looked up) 1

B1: ustekinumab (trade name Stelara) (antibody, V domains shown)
VH: EVQLVQSGAEVKKPGESLKISCKGSGYSFTTYWLGWVRQMPGKGLDWIGIMSPVDSDIRYSPSFQGQVTMSVDKSITTAYLQWNSLKASDTAMYYCARRRPGQGYFDFWGQGTLVTVSS
VL: DIQMTQSPSSLSASVGDRVTITCRASQGISSWLAWYQQKPEKAPKSLIYAASSLQSGVPSRFSGSGSGTDFTLTISSLQPEDFATYYCQQYNIYPYTFGQGTKLEIK
B2: H5L9 (antibody, human IgG1, kappa, V domains shown)
VH: EVQLVQSGAEVKKPGESLKISCQSSGYSFTTYWIGWVRQMPGQGLEWIGIMSPVDSDIRYNPMFRGQVTMSVDKSSSTAYLQWSSLKASDTAMYYCARRRPGQGYFDFWGQGTMVTVSS
VL: DIQMTQSPSSLSASVGDRVTITCKASQNVGSWLAWYQQKPGKAPKSLIYSASSRQSGVPSRFSGSGSGTDFTLTISSLQPEDFATYYCQQYDIYPFTFGQGTKLEIKR
notes: Humanized anti-human IL-12/IL-23 p40 antibody; IgG1 (P01857) / kappa (P01834) constant regions
B3: H5L10 (antibody, human IgG1, kappa, V domains shown)
VH: B2 VH
VL: EIVLTQSPATLSASPGERATISCRASQSVGSWLAWYQQKPGQAPRSLIYAASNLQSGIPARFSGSGSGTDFTLTISSLEPEDFAVYYCQQYNIYPYTFGQGTRLEIKR
notes: IgG1/kappa
B4: H5L14 (antibody, human IgG1, kappa, V domains shown)
VH: B2 VH
VL: B3 VL with G30S, Y96F
notes: IgG1/kappa
B5: H5L12 (antibody, human IgG1, kappa, V domains shown)
VH: B2 VH
VL: B3 VL with G30S, L54R
notes: IgG1/kappa
B6: H5L11 (antibody, human IgG1, kappa, V domains shown)
VH: B2 VH
VL: B3 VL with G30S, A50S
notes: IgG1/kappa

The target in the first experiment is T1, IL-12 (Human IL12 (His Tag)), Sino …. Put plainly: FACS competition, IL-12-His 20 nM on 293T-IL-12RB1&IL-23R cells, antibody 0.01 µg/mL. The method, then:
(§1) 200 μL of 1% PBSA was added into each sample, and the mixture was centrifuged at 700×g for 5 min to discard the supernatant. According to experiment design, correspondingly diluted antibody (highest final concentration of 30 μg/mL, 3-fold dilution, 8 concentrations in total) and human IL-12 (Sino Biological, Cat. No.: CT-050-H08H-20) (final concentration of 20 nM) were mixed at a ratio of 1:1, and a blank control was set. The mixture of antibody and human IL12 was incubated on ice for 30 min and then added to the cell precipitate at 100 μL/sample. The resulting mixture was well mixed and incubated on ice for 60 min. 200 μL of 1% PBSA was added, and the mixture was centrifuged at 700×g for 5 min to discard the supernatant, and then washed twice. Alexa Fluor® 488 anti-His tag antibody (Biolegend, Cat. No.: 652509) was diluted at a ratio of 1:400 and added to each tube at 100 μL. The mixture was well mixed and incubated on ice for 40 min in the absence of light. 200 μL of 1% PBSA was added, and the mixture was centrifuged at 700×g for 5 min to discard the supernatant, and then washed twice. 1% PBSA was added at 200 μL/tube, and the cells were resuspended and transferred to a flow cytometry tube for testing.
In turn, B1 yielded an MFI of 160.

As for B2, the MFI worked out at 169.

Regarding B3, the MFI was 163.

In turn, B4 had an MFI of 149.

Molecule B5 yielded an MFI of 161.

B6 yielded an MFI of 166.

The target in the next experiment is T2, human IL-23 (IL-23-His-Biotin, …). Put plainly: FACS competition, IL-23-His-Biotin 2 µg/mL on 293T-IL-12RB1&IL-23R cells, antibody 30 µg/mL. On the procedure: (§2) 2.1. […] 200 μL of 1% PBSA was added into each sample, and the mixture was centrifuged at 700×g for 5 min to discard the supernatant. According to experiment design, correspondingly diluted antibody (highest final concentration of 30 μg/mL, 3-fold dilution, 8 concentrations in total) and human IL-23 (IL-23-His-Biotin, Akesobio, 20161209) (final concentration of 2 μg/mL) were mixed at a ratio of 1:1, and a blank control was set. The mixture of antibody and human IL23 was incubated on ice for 30 min and then added to the cell precipitate at 100 μL/sample. The resulting mixture was well mixed and incubated on ice for 60 min. 200 μL of 1% PBSA was added, and the mixture was centrifuged at 700×g for 5 min to discard the supernatant, and then washed twice. FITC Streptavidin (Biolegend, Cat. No.: 405202) was diluted at a ratio of 1:500 and added to each tube at 100 μL. The mixture was well mixed and incubated on ice for 40 min in the absence of light. 200 μL of 1% PBSA was added, and the mixture was centrifuged at 700×g for 5 min to discard the supernatant, and then washed twice. 1% PBSA was added at 200 μL/tube, and the cells were resuspended and transferred to a flow cytometry tube for testing.
B1 returned an MFI of 9.64.

The molecule B2 displayed an MFI of 104.

B3: the MFI came out at 11.9.

B4: the MFI turned out to be 14.1.

Molecule B5 registered an MFI of 12.3.

Molecule B6 registered an MFI of 12.9.

The target is the same in the next experiment. The experiment is described as follows: FACS competition, IL-23-His-Biotin 2 µg/mL on 293T-IL-12RB1&IL-23R cells, antibody 0.37 µg/mL. On the procedure: as §2
B1: the MFI worked out at 186.

Molecule B2 yielded an MFI of 206.

With B3, the MFI came out at 169.

Take B4: the MFI is 179.

In turn, B5 yielded an MFI of 177.

B6 yielded an MFI of 179.

In another experiment the target is T1, IL-12 (Human IL12 (His Tag)), Sino …. Put plainly: FACS competition, IL-12-His 20 nM on 293T-IL-12RB1&IL-23R cells, antibody 0.04 µg/mL. On the procedure: as §1
B1 returned an MFI of 150.

For B2, the MFI came out at 158.

As to B3, the MFI amounted to 154.

B4 returned an MFI of 155.

B5: the MFI came to 149.

For B6, the MFI was found to be 151.

For another experiment, the target named is T2, human IL-23 (IL-23-His-Biotin, …). Put plainly: FACS competition, IL-23-His-Biotin 2 µg/mL on 293T-IL-12RB1&IL-23R cells, antibody 3.33 µg/mL. The method, then:
as §2
With B1, the MFI worked out at 13.8.

In turn, B2 gave an MFI of 153.

The molecule B3 showed an MFI of 15.7.

B4: the MFI came out at 23.6.

As for B5, the MFI turned out to be 15.8.

Regarding B6, the MFI is 20.2.

For the next experiment the target is unchanged. Put plainly: FACS competition, IL-23-His-Biotin 2 µg/mL on 293T-IL-12RB1&IL-23R cells, antibody 1.11 µg/mL. The method, then: as §2
Regarding B1, the MFI amounted to 121.

Turning to B2, the MFI stood at 184.

In turn, B3 had an MFI of 81.6.

B4 gave an MFI of 95.6.

The molecule B5 gave an MFI of 88.5.

Molecule B6 registered an MFI of 97.6.

The target in another experiment is T1, IL-12 (Human IL12 (His Tag)), Sino …. The experiment is described as follows: FACS competition, IL-12-His 20 nM on 293T-IL-12RB1&IL-23R cells, antibody 0.37 µg/mL. On the procedure:
as §1
B1 returned an MFI of 95.7.

Turning to B2, the MFI amounted to 159.

B3 displayed an MFI of 87.5.

B4 returned an MFI of 113.

For the molecule B5, the MFI came to 86.6.

Molecule B6 yielded an MFI of 103.

In the next experiment the target is T2, human IL-23 (IL-23-His-Biotin, …). Put plainly: FACS competition, IL-23-His-Biotin 2 µg/mL on 293T-IL-12RB1&IL-23R cells, antibody 10 µg/mL. The method, then:
as §2
Consider B1, for which the MFI is 11.5.

B2 had an MFI of 136.

B3 had an MFI of 12.7.

In turn, B4 gave an MFI of 16.7.

The molecule B5 came in with an MFI of 12.7.

B6 showed an MFI of 14.5.

The values are drawn from patent publication US20260217813A1 (published 2026).
